Assay results as given in patent US20210388049A1 (1GLOBE BIOMEDICAL, published 2021).

B1: E1 anti-PDL1 antibody (antibody, human IgG1, kappa, V domains shown)
VH: QIQLVQSGAEVKMPGASVTISCEASGYNFISYYIHWVRQAPGQGLEWMGFVVPSGGAAGYTQKFQGRLTVTRDTSTSTVYMDLNSLTSDDTAVYYCVREMSGGWFDFWGQGTLVTVSS
VL: DIVMTQSPSSLSASVGDRVTITCRASQGIRNDLGWYQQKPGKAPKLLIYAASTLQSGVPSRFSGSGSGTDFTLTISSLQAEDVAVYYCQQYYSTPLTFGPGTKVDIKR
notes: The full-length entries begin with the secretory leader; The constant region is human IgG1 type; also called parental antibody
B2: B2 anti-PDL1 antibody (antibody, human IgG1, lambda, V domains shown)
VH: EVQLVESGGGLVQPGGSLRLSCAASGFTFSDYDMIWVRQAPGKGLEWVAVISYDGSNKYYADSVKGRFTISRDNSKNTLYLQMNSLRAEDTAVYYCAKEFFGAFDIWGQGTMVTVSS
VL: SSELTQDPAVSVALGQTVTITCQGDSLNYYYANWFQLKPGQAPVLVLFGKNNRPSGIPDRFSGSYSGSTASLTITGAQAEDDADYYCNSRDSGGNPWVFGGGTKLTVLG
B3: E3 anti-PDL1 antibody (antibody, human IgG1, kappa, V domains shown)
VH: QIQLVQSGAEVKKPGSSVKVSCKASGGTFSSYAISWVRQAPGQGLEWMGGIIPIFGTANYAQKFQGRVTITADKSTSTAYMELSSLRSEDTAVYYCAGGGAVADNSYWGQGTLVTVSS
VL: DIRMTQSPSSLSASVGDRVTITCRASQGIRNDLGWYQQKPGKAPKLLIYAASSLQSGVPSRFSGSGSGTDFTLTISSLQPEDFATYYCLQDYNYPRTFGQGTKVEIKR

Experiments:
[1] = target: T1, human PDL1 transgenically expressed on DLD1 cells (human, UniProt Q9NZQ7 19-290); assay: FACS on DLD1 cells expressing human PDL1, fluorescent anti-human-IgG detection; mean, SD 297
T1 construct: whole, on cells; also called cell surface PDL1; PDLL
T1 sequence (Q9NZQ7 19-290): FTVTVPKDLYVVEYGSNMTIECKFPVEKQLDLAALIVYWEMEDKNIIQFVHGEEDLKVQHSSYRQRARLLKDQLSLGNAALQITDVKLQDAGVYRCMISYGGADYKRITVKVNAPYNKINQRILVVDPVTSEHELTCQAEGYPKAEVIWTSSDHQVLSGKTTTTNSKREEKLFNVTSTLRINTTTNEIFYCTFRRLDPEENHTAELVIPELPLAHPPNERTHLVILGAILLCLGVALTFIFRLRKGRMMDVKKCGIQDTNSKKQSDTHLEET
Procedure: To test the ability of the proteins to bind cell surface PDL1, we used DLD1 cells expressing transgenically expressed human PDLL. […] Briefly, 10⁵ cells were incubated with different concentrations of the protein for 30 minutes at 4° C. Cells were washed with PBS and incubated with a fluorescent, anti-human-IgG antibody for 30 minutes at 4° C. Cells were again washed with PBS and binding was detected by FACS.

[2] = target: PDL1 coated on ELISA plates (UniProt Q9NZQ7 19-238, limits assumed); assay: receptor blocking ELISA, biotinylated Fc-PD1 binding to PDL1-coated plates, streptavidin-HRP
PDL1 coated on ELISA plates, sequence (Q9NZQ7 19-238 limits assumed): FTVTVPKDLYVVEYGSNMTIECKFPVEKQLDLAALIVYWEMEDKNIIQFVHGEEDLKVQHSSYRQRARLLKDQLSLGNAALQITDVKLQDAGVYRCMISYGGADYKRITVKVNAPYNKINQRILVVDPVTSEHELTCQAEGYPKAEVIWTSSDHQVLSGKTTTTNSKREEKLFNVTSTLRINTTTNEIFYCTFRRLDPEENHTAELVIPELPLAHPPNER
Text: (§1) In both cases, binding was detected by using streptavidin linked horse radish peroxidase.

biotinylated Fc-PDL1 = target: T2, biotinylated Fc-PDL1 (UniProt Q9NZQ7 19-238, limits assumed, biotinylated (site not stated)); assay: receptor blocking ELISA, biotinylated Fc-PDL1 binding to PD1-coated plates, streptavidin-HRP
T2 construct: The order of the parts follows the printed name; not shown: Fc portion
T2 sequence (Q9NZQ7 19-238 limits assumed): as above
Text: as §1

Row | Binder | EC50 [1] | IC50 [2] | IC50 (biotinylated Fc-PDL1)
1 | B1 | 1.96 nM | 1.53 nM | 1.26 nM
2 | B2 |  | 0.8 nM | 1.39 nM
3 | B3 |  | 16.6 nM | 92.7 nM
